Data: patent publication US20240109955A1

How the values were obtained:
Experiment in all cases: cell-based or functional assay
[1] = target: SARS-CoV-2 spike (S) protein, Omicron sublineage BA.4/5 (SARS-CoV-2)
[2] = target: SARS-CoV-2 spike (S) protein, Omicron sublineage BQ.1 (SARS-CoV-2)
[3] = target: SARS-CoV-2 spike (S) protein, Omicron sublineage BA.2.75.2 (SARS-CoV-2)
[4] = target: SARS-CoV-2 spike (S) protein, Omicron sublineage XBB (SARS-CoV-2)
[5] = target: SARS-CoV-2 spike (S) protein, Omicron sublineage BQ.1.1 (SARS-CoV-2)

Binder | IC50, pseudovirus neutralization [1] [ng/mL] | IC80, pseudovirus neutralization [1] [ng/mL] | IC50, pseudovirus neutralization [2] [ng/mL] | IC80, pseudovirus neutralization [2] [ng/mL] | IC50, pseudovirus neutralization [3] [ng/mL] | IC80, pseudovirus neutralization [3] [ng/mL] | IC50, pseudovirus neutralization [4] [ng/mL] | IC80, pseudovirus neutralization [4] [ng/mL] | IC50, pseudovirus neutralization [5] [ng/mL] | IC80, pseudovirus neutralization [5] [ng/mL]
MX1056 (trispecific antibody) chain 1: DTVMTQSPLSLPVTPGEPASISCRSSQSLLNSNGYNYLDWYVQKPGQSPQLLIYLGSNRASGVPDRFSGSGSGTDFTLKISRVEAEDVGVYYCMQPLQTPLFTFGPGTKVEIKGGSSGEIVMTQSPAILSVSPGERATLSCRASQSVAINLAWYQQKPGQAPRLLIYAASSRATGIPGRFSGSGSETNFTLTISSLQSGDFAVYYCQQYITWPPSYTFGQGTKLEIKGGGGSGGSGSGGGGSASGSGEVQLVESGGALIQPGGSLRLSCAASGIIVSANYMSWVRQAPGKGLEWVSVIYSGGSTFYADSVKGRFTISRDNSKNTLYLEMNSLRAEDTAVYYCARDAPILGVSDWGQGTLVTVSSGGSSGQVTLRESGPALVKPTQTLTLTCTFSGFSLSTRGVCVSWIRQPPGKALEWLAFIDWDDDKYYNTSLKTRLTISKDTSKNQVVLTMTNVHPVDTATYYCARISSHHGSSWCTTFDYWGQGALVTVSAASGGSGDKTHTCPPCPAPELLGGPSVFLFPPKPKDTLMISRTPEVTCVVVDVSHEDPEVKFNWYVDGVEVHNAKTKPREEQYNSYVVSVLTVLHQDWLNGKEYKCKVSNKALPAPIEKTISKAKGQPREPQVYTLPPCRDELTKNQVSLWCLVKGFYPSDIAVEWESNGQPENNYKTTPPVLDSDGSFFKKLTVDKSRWQQGNVFSCSVLHEALHSHYTQKSLSLSPG chain 2: DTVMTQSPLSLPVTPGEPASISCRSSQSLLNSNGYNYLDWYVQKPGQSPQLLIYLGSNRASGVPDRFSGSGSGTDFTLKISRVEAEDVGVYYCMQPLQTPLFTFGPGTKVEIKGGSSGQTVVTQEPSFSVSPGGTVTLTCGLSSGSVSTAYFPSWYQQTPGQAPRTLIYGTNTRSSGVPDRFSGSILGNKAALTITGAQADDESDYYCVLYMGRGIVVFGGGTKLTVLGGGGSGGSGSGGGGSASGSGQVQLVESGGGVVQPGRSLRLSCAASGFTLSSYGMHWVRQAPGKGLEWVAVISYDGSNKYYVDSVKGRFTISRDNSKNTLYLQMNSLRAEDTAVYYCRWAYWELLPDYYYGMDVWGQGTTVTVSSGGSSGQVTLRESGPALVKPTQTLTLTCTFSGFSLSTRGVCVSWIRQPPGKALEWLAFIDWDDDKYYNTSLKTRLTISKDTSKNQVVLTMTNVHPVDTATYYCARISSHHGSSWCTTFDYWGQGALVTVSAASGGSGDKTHTCPPCPAPELLGGPSVFLFPPKPKDTLMISRTPEVTCVVVDVSHEDPEVKFNWYVDGVEVHNAKTKPREEQYNSYVVSVLTVLHQDWLNGKEYKCKVSNKALPAPIEKTISKAKGQPREPQVCTLPPSRDELTKNQVSLSCAVKGFYPSDIAVEWESNGQPENNYKTTPPVLDSDGSFFLVSKLTVDKSRWQQGNVFSCSVLHEALHSHYTQKSLSLSPG | 4.12 | 5.89 | 13 | 36.8 | 2.53 | 9.92 | 7.13 | 23.6 | 5.84 | 41.9
MX1065 (trispecific antibody) chain 1: QTVVTQEPSFSVSPGGTVTLTCGLSSGSVSTAYFPSWYQQTPGQAPRTLIYGTNTRSSGVPDRFSGSILGNKAALTITGAQADDESDYYCVLYMGRGIVVFGGGTKLTVLGGSSGEIVMTQSPAILSVSPGERATLSCRASQSVAINLAWYQQKPGQAPRLLIYAASSRATGIPGRFSGSGSETNFTLTISSLQSGDFAVYYCQQYITWPPSYTFGQGTKLEIKGGGGSGGSGSGGGGSASGSGEVQLVESGGALIQPGGSLRLSCAASGIIVSANYMSWVRQAPGKGLEWVSVIYSGGSTFYADSVKGRFTISRDNSKNTLYLEMNSLRAEDTAVYYCARDAPILGVSDWGQGTLVTVSSGGSSGQVQLVESGGGVVQPGRSLRLSCAASGFTLSSYGMHWVRQAPGKGLEWVAVISYDGSNKYYVDSVKGRFTISRDNSKNTLYLQMNSLRAEDTAVYYCRWAYWELLPDYYYGMDVWGQGTTVTVSSASGGSGDKTHTCPPCPAPELLGGPSVFLFPPKPKDTLMISRTPEVTCVVVDVSHEDPEVKFNWYVDGVEVHNAKTKPREEQYNSYVVSVLTVLHQDWLNGKEYKCKVSNKALPAPIEKTISKAKGQPREPQVYTLPPCRDELTKNQVSLWCLVKGFYPSDIAVEWESNGQPENNYKTTPPVLDSDGSFFKKLTVDKSRWQQGNVFSCSVLHEALHSHYTQKSLSLSPG chain 2: QTVVTQEPSFSVSPGGTVTLTCGLSSGSVSTAYFPSWYQQTPGQAPRTLIYGTNTRSSGVPDRFSGSILGNKAALTITGAQADDESDYYCVLYMGRGIVVFGGGTKLTVLGGSSGDTVMTQSPLSLPVTPGEPASISCRSSQSLLNSNGYNYLDWYVQKPGQSPQLLIYLGSNRASGVPDRFSGSGSGTDFTLKISRVEAEDVGVYYCMQPLQTPLFTFGPGTKVEIKGGGGSGGSGSGGGGSASGSGQVTLRESGPALVKPTQTLTLTCTFSGFSLSTRGVCVSWIRQPPGKALEWLAFIDWDDDKYYNTSLKTRLTISKDTSKNQVVLTMTNVHPVDTATYYCARISSHHGSSWCTTFDYWGQGALVTVSAGGSSGQVQLVESGGGVVQPGRSLRLSCAASGFTLSSYGMHWVRQAPGKGLEWVAVISYDGSNKYYVDSVKGRFTISRDNSKNTLYLQMNSLRAEDTAVYYCRWAYWELLPDYYYGMDVWGQGTTVTVSSASGGSGDKTHTCPPCPAPELLGGPSVFLFPPKPKDTLMISRTPEVTCVVVDVSHEDPEVKFNWYVDGVEVHNAKTKPREEQYNSYVVSVLTVLHQDWLNGKEYKCKVSNKALPAPIEKTISKAKGQPREPQVCTLPPSRDELTKNQVSLSCAVKGFYPSDIAVEWESNGQPENNYKTTPPVLDSDGSFFLVSKLTVDKSRWQQGNVFSCSVLHEALHSHYTQKSLSLSPG |  |  | 33.5 | 86 |  |  | 12.5 | 16.7 | 14 | 20.6
MX1066 (trispecific antibody) chain 1: QTVVTQEPSFSVSPGGTVTLTCGLSSGSVSTAYFPSWYQQTPGQAPRTLIYGTNTRSSGVPDRFSGSILGNKAALTITGAQADDESDYYCVLYMGRGIVVFGGGTKLTVLGGSSGEIVMTQSPAILSVSPGERATLSCRASQSVAINLAWYQQKPGQAPRLLIYAASSRATGIPGRFSGSGSETNFTLTISSLQSGDFAVYYCQQYITWPPSYTFGQGTKLEIKGGGGSGGSGSGGGGSASGSGEVQLVESGGALIQPGGSLRLSCAASGIIVSANYMSWVRQAPGKGLEWVSVIYSGGSTFYADSVKGRFTISRDNSKNTLYLEMNSLRAEDTAVYYCARDAPILGVSDWGQGTLVTVSSGGSSGQVQLVESGGGVVQPGRSLRLSCAASGFTLSSYGMHWVRQAPGKGLEWVAVISYDGSNKYYVDSVKGRFTISRDNSKNTLYLQMNSLRAEDTAVYYCRWAYWELLPDYYYGMDVWGQGTTVTVSSASGGSGDKTHTCPPCPAPELLGGPSVFLFPPKPKDTLMISRTPEVTCVVVDVSHEDPEVKFNWYVDGVEVHNAKTKPREEQYNSYVVSVLTVLHQDWLNGKEYKCKVSNKALPAPIEKTISKAKGQPREPQVYTLPPCRDELTKNQVSLWCLVKGFYPSDIAVEWESNGQPENNYKTTPPVLDSDGSFFKKLTVDKSRWQQGNVFSCSVLHEALHSHYTQKSLSLSPG chain 2: DTVMTQSPLSLPVTPGEPASISCRSSQSLLNSNGYNYLDWYVQKPGQSPQLLIYLGSNRASGVPDRFSGSGSGTDFTLKISRVEAEDVGVYYCMQPLQTPLFTFGPGTKVEIKGGSSGQTVVTQEPSFSVSPGGTVTLTCGLSSGSVSTAYFPSWYQQTPGQAPRTLIYGTNTRSSGVPDRFSGSILGNKAALTITGAQADDESDYYCVLYMGRGIVVFGGGTKLTVLGGGGSGGSGSGGGGSASGSGQVQLVESGGGVVQPGRSLRLSCAASGFTLSSYGMHWVRQAPGKGLEWVAVISYDGSNKYYVDSVKGRFTISRDNSKNTLYLQMNSLRAEDTAVYYCRWAYWELLPDYYYGMDVWGQGTTVTVSSGGSSGQVTLRESGPALVKPTQTLTLTCTFSGFSLSTRGVCVSWIRQPPGKALEWLAFIDWDDDKYYNTSLKTRLTISKDTSKNQVVLTMTNVHPVDTATYYCARISSHHGSSWCTTFDYWGQGALVTVSAASGGSGDKTHTCPPCPAPELLGGPSVFLFPPKPKDTLMISRTPEVTCVVVDVSHEDPEVKFNWYVDGVEVHNAKTKPREEQYNSYVVSVLTVLHQDWLNGKEYKCKVSNKALPAPIEKTISKAKGQPREPQVCTLPPSRDELTKNQVSLSCAVKGFYPSDIAVEWESNGQPENNYKTTPPVLDSDGSFFLVSKLTVDKSRWQQGNVFSCSVLHEALHSHYTQKSLSLSPG |  |  | 35.9 | 41.3 |  |  | 28.7 | 29.8 | 28.4 | 30.8
